In patent CN109678958A (CHONGQING BIOMEAN TECH CO LTD, dated 2019):

Target: T1, 重组人NT-proBNP (recombinant human N-terminal pro-brain natriuretic peptide, bought from 重庆探生科技有限公司) (human, UniProt P16860 27-102)
T1 construct: also called NT-proBNP校准品; 人脑钠肽原N端肽
T1 sequence (looked up): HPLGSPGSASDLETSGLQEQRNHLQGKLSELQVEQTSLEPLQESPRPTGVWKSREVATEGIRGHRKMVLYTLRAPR
Assay: phage ELISA, NT-proBNP coated, HRP anti-phage antibody, A450

B1: 人NT-proBNP特异性羊单链抗体scFv, displayed on phage (clone of the third round of panning) (scFv)
scFv: MALSQVRLQESGPSLVKPSQTLSLTCTVSGPSLTDYDVDWVRQAPGKALEWLGFINQGAPTGYDPALKSRLSITRDTSKSQVSLSLSSMTAEDTAVYYCARGAILGWGRGLLVTVSSQGSTSGSGKPGSGEGSTKGGQAVLTQPASVSGSPGQTVTISCTGTSGDIAGYNLVGWYQQLPNSAPKTLIYDVSTRRSGIPARFSGSKSGNTATLTISGLQAEDEADYYCSTSISANSVGFGSGTRLTVLGQPKSAPS
notes: The phage coat fusion partner is not described; also called 单克隆噬菌体
binding result: binds
